Like-named read-outs stand apart in the source and are kept apart here.
B1: ALK58 monoclonal antibody (antibody, V domains shown)
VH: ALQLQQSGAELVRPGASVTLSCKASGYTFTDYEMHWVKQTPVHGLEWIGAIDPETGGTAYNQKFEGKAILTADKSSSTAYMELRSLTSEDSPVYYCARRRYYGSSSFDYWGQGTTLTVSS
VL: DVQMIQTPSSLSASLGDRVTISCRASQDIGNYLNWYQQKPDGTVKLLIYYTSRLHSGVPSRFSGSGSGTEYSLTISNLEQEDIATYFCQQGSALPPTFGGGTKLEIN
notes: Murine hybridoma antibody; also called ALK58A; ALK MAb 58
B2: ALK58A: anti-ALK monoclonal antibody; VH SEQ ID NO: 7, VL SEQ ID NO: 8 (antibody, V domains shown)
VH: B1 VH
VL: B1 VL
modifications: Antibody variable domain sequence
B3: ALK15A: anti-ALK monoclonal antibody, IgG2b; VH SEQ ID NO: 1, VL SEQ ID NO: 2 (antibody, V domains shown)
VH: DVKLQESGPGLVAPSQSLSITCTVSGFSLTSYAVSWVRQPPGKGLEWLGIIWSGGATNYNSALKSRLSISKDNSKSQVFLKMNGLQTDDTARYYCAREHYYGSSAMDYWGQGASITVSS
VL: GIVMTQSPLSLPVSLGDQASISCRSSQSIVHSYGNTYLFWYLQKPGQSPKLLIYRVSNRFSGVPDRFSGSGSGTNFTLKISRVEAEDMGVYYCFQGTHVPYTFGGGTKLEIK
modifications: Antibody variable domain sequence
B4: ALK53 monoclonal antibody (antibody, V domains shown)
VH: DVQLQESGPVLVKTGASVKMSCTASGYTFTDHFMDWVKQSHGKSLEWIGSLNPYSGGTSYNQKFKGKATLTVDKSSSTAYMELNSLTSVDSAVYYCARHNWGAYFDYWGQGTTLTVSS
VL: DIVMTQAAPSVPVTPGESVSISCRSSKSLLHSNGNTYLYWFLQRPGQSPQRLIYYMSNLASGVPDRFSGRGSGTDFTLRISRVEAEDVGVYYCMQGLEDPYTFGGGTKLEIK
notes: Murine hybridoma antibody; also called ALK53A; ALK MAb 53
B5: ALK53A: anti-ALK monoclonal antibody; VH SEQ ID NO: 5, VL SEQ ID NO: 6 (antibody, V domains shown)
VH: B4 VH
VL: B4 VL
modifications: Antibody variable domain sequence
B6: ALK48 monoclonal antibody (antibody, IgG2a, V domains shown)
VH: QVQLQQSGAELVKPGASVKISCKASGYAFSSYWMNWVKQRPGKGLEWIGQIYPGDGDTTYNGKFKGKATLTADKSSSTVYMQLNSLTSEDSAVYFCVRYYYGSSGYFDYWGQGTTLTVSS
VL: DVQMIQTPDSLAVSLGQRATISCRASESVDNYGISFMHWYQQKPGQSPKLLIYRASNLESGIPARFSGSGSRTDFTLTINPVETDDVATYYCQQNNKDPPTFGGGTKLEIK
notes: Murine hybridoma antibody; also called ALK48B; ALK MAb 48
B7: ALK48B: anti-ALK monoclonal antibody, IgG2a; VH SEQ ID NO: 3, VL SEQ ID NO: 4 (antibody, V domains shown)
VH: B6 VH
VL: B6 VL
modifications: Antibody variable domain sequence
B8: ALK48: CAR construct, long format: SP-murine ALK48 scFv-CH2CH3 spacer; signaling domains not stated for the in vitro tests (antibody, V domains shown)
VH: B6 VH
VL: B6 VL
B9: ALK48SH-28z: CAR, SEQ ID NO: 50; murine ALK48 scFv, no spacer (short form), 28z (protein)
chain: LLVTSLLLCELPHPAFLLIPDTQVQLQQSGAELVKPGASVKISCKASGYAFSSYWMNWVKQRPGKGLEWIGQIYPGDGDTTYNGKFKGKATLTADKSSSTVYMQLNSLTSEDSAVYFCVRYYYGSSGYFDYWGQGTTLTVSSGGGGSGGGGSGGGGSDVQMIQTPDSLAVSLGQRATISCRASESVDNYGISFMHWYQQKPGQSPKLLIYRASNLESGIPARFSGSGSRTDFTLTINPVETDDVATYYCQQNNKDPPTFGGGTKLEIKRAAAIEVMYPPPYLDNEKSNGTIIHVKGKHLCPSPLFPGPSKPFWVLVVVGGVLACYSLLVTVAFIIFWVRSKRSRLLHSDYMNMTPRRPGPTRKHYQPYAPPRDFAAYRSRVKFSRSADAPAYQQGQNQLYNELNLGRREEYDVLDKRRGRDPEMGGKPRRKNPQEGLYNELQKDKMAEAYSEIGMKGERRRGKGHDGLYQGLSTATKDTYDALHMQALPPR
modifications: chimeric antigen receptor sequence
notes: murine ALK48 scFv, no spacer (short form), 28z

Experiments:
[1] = molecular target: T1, human anaplastic lymphoma kinase (ALK) protein (human, UniProt Q9UM73 19-1620); test: flow cytometry on tumor cell lines expressing ALK
T1 construct: Endogenous ALK on tumor cell lines (SY5Y, LAN5, KCNR, IMR32, Rh18); also called CD246; cell surface ALK
T1 sequence (Q9UM73 19-1620 limits assumed): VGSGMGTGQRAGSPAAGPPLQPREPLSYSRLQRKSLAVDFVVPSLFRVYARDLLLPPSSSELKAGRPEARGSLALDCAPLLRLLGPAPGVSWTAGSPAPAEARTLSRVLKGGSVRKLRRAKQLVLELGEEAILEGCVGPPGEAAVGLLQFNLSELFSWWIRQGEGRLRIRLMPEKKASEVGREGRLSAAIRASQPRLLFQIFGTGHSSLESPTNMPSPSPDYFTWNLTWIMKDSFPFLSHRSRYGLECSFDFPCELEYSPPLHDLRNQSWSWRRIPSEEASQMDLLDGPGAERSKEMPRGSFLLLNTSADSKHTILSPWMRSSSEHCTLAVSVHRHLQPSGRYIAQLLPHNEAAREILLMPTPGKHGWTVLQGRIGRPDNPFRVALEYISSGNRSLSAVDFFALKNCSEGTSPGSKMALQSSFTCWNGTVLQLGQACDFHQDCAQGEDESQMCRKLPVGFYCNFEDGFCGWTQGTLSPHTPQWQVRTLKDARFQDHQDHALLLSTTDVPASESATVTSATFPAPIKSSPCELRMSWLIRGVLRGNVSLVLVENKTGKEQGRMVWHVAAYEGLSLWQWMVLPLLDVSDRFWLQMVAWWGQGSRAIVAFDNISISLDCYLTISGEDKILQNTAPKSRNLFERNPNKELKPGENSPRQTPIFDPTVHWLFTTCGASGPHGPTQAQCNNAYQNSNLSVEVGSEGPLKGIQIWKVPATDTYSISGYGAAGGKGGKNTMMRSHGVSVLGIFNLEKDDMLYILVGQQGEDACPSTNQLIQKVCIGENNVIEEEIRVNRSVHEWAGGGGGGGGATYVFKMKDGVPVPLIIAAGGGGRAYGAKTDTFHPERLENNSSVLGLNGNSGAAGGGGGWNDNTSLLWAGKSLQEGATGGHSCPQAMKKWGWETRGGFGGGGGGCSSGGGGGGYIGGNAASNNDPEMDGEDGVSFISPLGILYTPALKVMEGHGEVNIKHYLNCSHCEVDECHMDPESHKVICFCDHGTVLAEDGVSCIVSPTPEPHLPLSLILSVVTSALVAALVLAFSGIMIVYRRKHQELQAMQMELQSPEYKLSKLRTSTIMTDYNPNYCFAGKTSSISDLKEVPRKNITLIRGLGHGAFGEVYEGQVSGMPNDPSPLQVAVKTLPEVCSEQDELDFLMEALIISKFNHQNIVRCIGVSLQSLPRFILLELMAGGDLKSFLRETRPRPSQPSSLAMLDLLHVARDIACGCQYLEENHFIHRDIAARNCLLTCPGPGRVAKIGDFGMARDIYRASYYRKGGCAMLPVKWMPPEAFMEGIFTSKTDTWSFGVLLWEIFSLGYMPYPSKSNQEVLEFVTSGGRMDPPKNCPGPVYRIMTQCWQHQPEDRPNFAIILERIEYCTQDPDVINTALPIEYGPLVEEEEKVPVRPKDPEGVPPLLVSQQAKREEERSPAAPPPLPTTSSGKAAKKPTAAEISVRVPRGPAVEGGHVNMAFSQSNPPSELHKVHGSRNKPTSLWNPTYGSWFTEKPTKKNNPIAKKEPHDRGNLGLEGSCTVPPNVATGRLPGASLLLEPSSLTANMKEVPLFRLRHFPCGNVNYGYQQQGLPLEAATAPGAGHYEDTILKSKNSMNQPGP
Description: Cell lines used in these studies were: Sy5Y, LAN5, K562, Rh18, IMR32, KCNR. Cells were cultured in RPMI-1640 supplemented with 2 mM lgln, 10 mM HEPES, Pen/Strep, (Gibco, Life Technologies, Grand Island, N.Y.) and 10% FBS (Omega Scientific, Tarzana, Calif.). Anti-ALK antibodies were produced as described previously: ALK15A (IgG2b, weak agonist, membrane proximal binding), ALK48B (IgG2a, agonist, membrane proximal binding), ALK53A, ALK58A (binds to a membrane distal epitope) (Mazot et al., Oncogene, 30, 2017-2025, 2011; Moog-Lutz et al., J Biol. Chem., 280, 26039-26048, 2005). Staining for ALK expression on tumor lines was performed as follows: 2.5 μL primary antibody (1 mg/ml conc.) per 1 million cells was added to cells on ice in FACS buffer, FB, (PBS, 0.5% BSA, 0.02% NaN3) for 20 minutes, cells were washed twice, then stained with 5 μL FITC-F(ab′)2 Fragment Goat Anti-Mouse IgG+IgM (H+L) secondary antibody (Jackson ImmunoResearch, 1 mg/ml) for 20 minutes, washed, then analyzed by flow cytometry.
As reported previously, ALK MAbs 7, 48, 53, and 58 were able to detected ALK expression on tumor cell lines by flow cytometry. The ALK-specific MAb was used to define the expression of ALK on a series of neuroblastoma call lines, and a rhabdomyosarcoma cell line. FIG. 1 illustrates that the neuroblastoma cell lines SY5Y, LAN5, KCNR, IMR32, all express cell surface ALK, as does the rhabdomyosarcoma cell line Rh18. The differences in expression were quite varied with the SY5Y staining the brightest for ALK expression. This was true when the other MAbs specific for ALK were tested as well.

ALK [2] = conditions: cited from earlier work
Target sequence in this assay (Q9UM73 19-1620): as the sequence (Q9UM73 19-1620 limits assumed) above

ALK [3] = conditions: flow cytometry; as reported previously; cited from earlier work
Target sequence in this assay (Q9UM73 19-1038 limits assumed): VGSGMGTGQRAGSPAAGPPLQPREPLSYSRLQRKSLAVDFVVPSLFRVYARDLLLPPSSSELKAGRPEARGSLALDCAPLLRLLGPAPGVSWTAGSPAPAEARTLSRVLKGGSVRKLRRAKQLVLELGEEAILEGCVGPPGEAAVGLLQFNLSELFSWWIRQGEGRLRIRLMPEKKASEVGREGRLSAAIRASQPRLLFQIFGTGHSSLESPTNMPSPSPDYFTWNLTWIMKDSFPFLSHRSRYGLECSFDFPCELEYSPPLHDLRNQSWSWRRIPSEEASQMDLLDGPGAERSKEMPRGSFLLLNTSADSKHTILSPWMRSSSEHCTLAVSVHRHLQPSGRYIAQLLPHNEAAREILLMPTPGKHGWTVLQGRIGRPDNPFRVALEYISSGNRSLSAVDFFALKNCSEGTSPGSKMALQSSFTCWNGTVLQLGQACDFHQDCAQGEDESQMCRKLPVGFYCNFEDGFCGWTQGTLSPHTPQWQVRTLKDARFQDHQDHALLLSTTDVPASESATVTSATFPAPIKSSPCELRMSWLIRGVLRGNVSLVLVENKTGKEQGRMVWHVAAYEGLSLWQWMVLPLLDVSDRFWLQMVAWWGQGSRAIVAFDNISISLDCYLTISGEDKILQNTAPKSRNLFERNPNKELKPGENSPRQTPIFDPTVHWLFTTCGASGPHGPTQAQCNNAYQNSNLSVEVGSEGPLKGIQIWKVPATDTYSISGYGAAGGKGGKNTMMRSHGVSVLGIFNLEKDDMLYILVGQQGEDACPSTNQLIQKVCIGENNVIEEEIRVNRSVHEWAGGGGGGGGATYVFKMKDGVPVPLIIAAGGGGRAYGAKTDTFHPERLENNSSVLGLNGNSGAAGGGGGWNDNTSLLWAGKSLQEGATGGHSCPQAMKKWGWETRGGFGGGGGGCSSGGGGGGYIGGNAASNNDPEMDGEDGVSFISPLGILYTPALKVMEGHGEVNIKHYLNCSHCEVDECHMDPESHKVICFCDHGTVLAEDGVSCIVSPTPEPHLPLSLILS

[4] = molecular target: T2, extracellular domain of ALK (Homo sapiens, UniProt Q9UM73); conditions: cited from earlier work
T2 construct: monoclonal antibodies (mAb) against the extracellular domain of ALK
T2 sequence (Q9UM73 19-1038 limits assumed): as above

[5] = tested on: tumor cell lines (LAN5 SY5Y, Rh18, K562); test: Cytokine release on co-culture of CAR T cells with tumor cell lines; assay type: cell-based; conditions: 24-hour co-culture with tumor cell lines; FIG. 6
Description: FIGS. 6A-6C show a series of graphs illustrating cytokine activity of the disclosed CAR T Cells. PBMC were transduced with the indicated CAR constructs, and incubated with tumor targets (LAN5 SY5Y, Rh18, K562 as indicated in legend), and supernatants collected after 24 hours and tested for the presence of cytokine by a MesoScale mutli-analyte detection system. […] Controls include mock transduced cells, tumor only, and T cells without tumor target, as indicated.
T cell cytolytic function was assayed in standard 51Cr release assays as described elsewhere (Haso et al., (2013) Blood, 121, 1165-1174). Cytokine release was assayed by co-incubating 25,000 T cells with 25,000 tumor cell targets in cRPMI. At 24 hours culture media was collected and cytokines measured (Human TH1/TH2 multiplex, Meso Scale Discovery, Rockville, Md.).

[6] = tested on: ALK+ human neuroblastoma cells (SY5Y cells); test: SY5Y neuroblastoma xenograft assay; assay type: in vivo; conditions: transduced T cells given on day 13, no treatment on day 6
Description: NSG mice were injected s.c. on day 0 with 5×10^6 human neuroblastoma cells (SY5Y in vivo passaged and re-cultured as a new line, SY5Y.P1). On day 6, 5.1×10^6 ALK48-28z CAR(+)ve T cells were injected r.o. (34% positive/15 million total). CAR-treated mice were given a cocktail of (0.9 μg IL-7+6.6 μg M25 anti-IL7 mAb) i.p. every 2-3 days, for the time period indicated above. Survival statistics were calculated using Log-rank (Mantel-Cox) analysis (Prism Software, Inc.). On day 13, 3.2×10^6 ALK48SH-trasnduced T cells were given. The experiment was ended on day 64 due to graft vs host disease-like symptoms, standardly encountered in the NSG model system.
NOD scid gamma (NSG) mice were inoculated with ALK+ human neuroblastoma cells (SY5Y cells). On day 6, the mice were treated with human T cells transduced to express the murine ALK specific ALK48-28z CAR (SEQ ID NO: 49, long form CAR with CH2CH3 spacer domain) or mock treated T cells. […] In a separate set of mice, on day 13 post inoculation (and without any treatment on day 6), the mice were treated with ALK48SH-28z (SEQ ID NO: 50, short form CAR without spacer domain) transduced T cells.
The mice also received biweekly injections of IL-7 complexed to anti-IL7 antibody to promote T cell persistence. […] The other two groups all died of tumor.

Row | Molecule | binding result [1] | agonist activity on ALK (ALK [2]) | detection of ALK expression on tumor cell lines (ALK [3]) | location of epitope on ALK [4] | also measured
1 | B1 | binds | – | – | – | –
2 | B2 | – | activating | able to detected ALK expression | membrane distal epitope | phosphorylation of the receptor upon binding (ALK [2]): induce phosphorylation; form of ALK bound (220 kD / 140 kDa cleaved) [4]: only the 220 KDa form; location of epitope on ALK ([4]; listed as clone 58): more distal cleaved region
3 | B3 | – | weak agonist | – | membrane proximal binding | –
4 | B4 | binds | – | – | – | –
5 | B5 | – | – | able to detected ALK expression | – | –
6 | B6 | binds | – | – | – | –
7 | B7 | – | agonist | able to detected ALK expression | membrane proximal binding | phosphorylation of the receptor upon binding (ALK [2]): induce phosphorylation; agonist activity on ALK (ALK [2]; listed as mAb 48): activating; form of ALK bound (220 kD / 140 kDa cleaved) [4]: both; location of epitope on ALK ([4]; listed as clone 48): closer to the cell surface membrane
8 | B8 | – | – | – | – | IFN-gamma production [5]: Strong; IL-2 production [5]: lower levels; TNF-alpha production [5]: lower levels
9 | B9 | – | – | – | – | effect on survival [6]: no effect on survival
